{"source": "patent US6376217", "binders": {"B1": {"name": "he3Fab-rGelA50(C44) (other)", "heavy": "EIQLVQSGGGLVKPGGSVRISCAASGYTFTNYGMNWVRQAPGKGLEWMGWINTHTGEPTYADSFKGRFTFSLDDSKNTAYLQINSLRAEDTAVYFCTRRGYDWYFDVWGQGTTVTVSS", "light": "DIQMTQSPSSLSASVGDRVTITCRASQDINSYLSWFQQKPGKAPKTLIYRANRLESGVPSRFSGSGSGTDYTLTISSLQYEDFGIYYCQQYDESPWTFGGGTKLEIK", "chain": "GLDTVSFSTKGATYITYVNFLNELRVKLKPEGNSHGIPLLRKKCDDPGKAFVLVALSNDNGQLAEIAIDVTSVYVVGYQVRNRSYFFKDAPDAAYEGLFKNTIKTRLHFGGSYPSLEGEKAYRETTDLGIEPLRIGIKKLDENAIDNYKPTEIASSLLVVIQMVSEAARFTFIENQIRNNFQQRIRPANNTISLENKWGKLSFQIRTSGANGMFSEAVELERANGKKYYVTAVDQVKPKIALLKFVDKDPK"}}, "biological_target": "T1, human CD5 cell differentiation marker (human, UniProt P06127 25-495)", "T1 sequence": "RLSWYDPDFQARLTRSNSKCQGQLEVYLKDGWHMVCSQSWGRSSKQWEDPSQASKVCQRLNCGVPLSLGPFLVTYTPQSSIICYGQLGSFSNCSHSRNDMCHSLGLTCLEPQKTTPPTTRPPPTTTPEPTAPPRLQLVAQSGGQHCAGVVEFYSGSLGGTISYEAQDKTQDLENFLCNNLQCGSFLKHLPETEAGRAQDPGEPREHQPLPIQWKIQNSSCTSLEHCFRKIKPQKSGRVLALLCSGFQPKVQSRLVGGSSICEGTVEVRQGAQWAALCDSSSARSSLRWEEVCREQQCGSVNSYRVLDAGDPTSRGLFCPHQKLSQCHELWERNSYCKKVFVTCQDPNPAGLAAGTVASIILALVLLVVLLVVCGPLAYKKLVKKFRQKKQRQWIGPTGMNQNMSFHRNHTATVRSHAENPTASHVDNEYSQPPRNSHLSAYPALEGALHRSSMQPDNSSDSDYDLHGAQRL", "assay": "cell-based or functional assay", "data": [{"binder": "B1", "values": [{"measurement": "IC50 (pMT), whole cell cytotoxicity, CEM Cells", "value": 173, "unit": "pMT"}]}]}
